Reference: patent US20090291890A1 (published 2009)

Target: Factor X (FX) (Homo sapiens (Human)) (UniProt P00742)
Sequence (P00742 41-488 limits assumed): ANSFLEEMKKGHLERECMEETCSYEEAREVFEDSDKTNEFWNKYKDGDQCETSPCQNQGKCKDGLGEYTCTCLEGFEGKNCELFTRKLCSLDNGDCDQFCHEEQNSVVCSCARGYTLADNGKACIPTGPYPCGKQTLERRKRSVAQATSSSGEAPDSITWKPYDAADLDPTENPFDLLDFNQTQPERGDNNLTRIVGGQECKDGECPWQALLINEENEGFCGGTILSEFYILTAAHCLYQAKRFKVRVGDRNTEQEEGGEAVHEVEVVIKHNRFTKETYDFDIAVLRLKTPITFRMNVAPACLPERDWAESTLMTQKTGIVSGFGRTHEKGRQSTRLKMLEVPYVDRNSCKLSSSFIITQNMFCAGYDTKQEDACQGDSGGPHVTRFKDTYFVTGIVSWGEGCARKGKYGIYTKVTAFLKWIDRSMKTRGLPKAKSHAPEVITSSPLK

| kcat/KM, TF-Dependent Indirect Assay [M⁻¹ s⁻¹] | Binder |
| --- | --- |
| 5.48e+07 | FVIIa variant S222E (enzyme) ANAFLEELRPGSLERECKEEQCSFEEAREIFKDAERTKLFWISYSDGDQCASSPCQNGGSCKDQLQSYICFCLPAFEGRNCETHKDDQLICVNENGGCEQYCSDHTGTKRSCRCHEGYSLLADGVSCTPTVEYPCGKIPILEKRNASKPQGRIVGGKVCPKGECPWQVLLLVNGAQLCGGTLINTIWVVSAAHCFDKIKNWRNLIAVLGEHDLSEHDGDEQERRVAQVIIPSTYVPGTTNHDIALLRLHQPVVLTDHVVPLCLPERTFSERTLAFVRFSLVSGWGQLLDRGATALELMVLNVPRLMTQDCLQQSRKVGDSPNITEYMFCAGYSDGSKDSCKGDSGGPHATHYRGTWYLTGIVSWGQGCATVGHFGVYTRVSQYIEWLQKLMRSEPRPGVLLRAPFP |
| 9.37e+07 | FVIIa variant Q366I (enzyme) ANAFLEELRPGSLERECKEEQCSFEEAREIFKDAERTKLFWISYSDGDQCASSPCQNGGSCKDQLQSYICFCLPAFEGRNCETHKDDQLICVNENGGCEQYCSDHTGTKRSCRCHEGYSLLADGVSCTPTVEYPCGKIPILEKRNASKPQGRIVGGKVCPKGECPWQVLLLVNGAQLCGGTLINTIWVVSAAHCFDKIKNWRNLIAVLGEHDLSEHDGDEQSRRVAQVIIPSTYVPGTTNHDIALLRLHQPVVLTDHVVPLCLPERTFSERTLAFVRFSLVSGWGQLLDRGATALELMVLNVPRLMTQDCLQQSRKVGDSPNITEYMFCAGYSDGSKDSCKGDSGGPHATHYRGTWYLTGIVSWGIGCATVGHFGVYTRVSQYIEWLQKLMRSEPRPGVLLRAPFP |
| 6.87e+07 | FVIIa variant Q366L (enzyme) ANAFLEELRPGSLERECKEEQCSFEEAREIFKDAERTKLFWISYSDGDQCASSPCQNGGSCKDQLQSYICFCLPAFEGRNCETHKDDQLICVNENGGCEQYCSDHTGTKRSCRCHEGYSLLADGVSCTPTVEYPCGKIPILEKRNASKPQGRIVGGKVCPKGECPWQVLLLVNGAQLCGGTLINTIWVVSAAHCFDKIKNWRNLIAVLGEHDLSEHDGDEQSRRVAQVIIPSTYVPGTTNHDIALLRLHQPVVLTDHVVPLCLPERTFSERTLAFVRFSLVSGWGQLLDRGATALELMVLNVPRLMTQDCLQQSRKVGDSPNITEYMFCAGYSDGSKDSCKGDSGGPHATHYRGTWYLTGIVSWGLGCATVGHFGVYTRVSQYIEWLQKLMRSEPRPGVLLRAPFP |
| 6.04e+07 | FVIIa variant S222V (enzyme) ANAFLEELRPGSLERECKEEQCSFEEAREIFKDAERTKLFWISYSDGDQCASSPCQNGGSCKDQLQSYICFCLPAFEGRNCETHKDDQLICVNENGGCEQYCSDHTGTKRSCRCHEGYSLLADGVSCTPTVEYPCGKIPILEKRNASKPQGRIVGGKVCPKGECPWQVLLLVNGAQLCGGTLINTIWVVSAAHCFDKIKNWRNLIAVLGEHDLSEHDGDEQVRRVAQVIIPSTYVPGTTNHDIALLRLHQPVVLTDHVVPLCLPERTFSERTLAFVRFSLVSGWGQLLDRGATALELMVLNVPRLMTQDCLQQSRKVGDSPNITEYMFCAGYSDGSKDSCKGDSGGPHATHYRGTWYLTGIVSWGQGCATVGHFGVYTRVSQYIEWLQKLMRSEPRPGVLLRAPFP |
| 2.02e+07 | FVIIa variant Q286L (enzyme) ANAFLEELRPGSLERECKEEQCSFEEAREIFKDAERTKLFWISYSDGDQCASSPCQNGGSCKDQLQSYICFCLPAFEGRNCETHKDDQLICVNENGGCEQYCSDHTGTKRSCRCHEGYSLLADGVSCTPTVEYPCGKIPILEKRNASKPQGRIVGGKVCPKGECPWQVLLLVNGAQLCGGTLINTIWVVSAAHCFDKIKNWRNLIAVLGEHDLSEHDGDEQSRRVAQVIIPSTYVPGTTNHDIALLRLHQPVVLTDHVVPLCLPERTFSERTLAFVRFSLVSGWGLLLDRGATALELMVLNVPRLMTQDCLQQSRKVGDSPNITEYMFCAGYSDGSKDSCKGDSGGPHATHYRGTWYLTGIVSWGQGCATVGHFGVYTRVSQYIEWLQKLMRSEPRPGVLLRAPFP |

Continued, binder first:

| Binder | kcat/KM, TF-Dependent Indirect Assay [M⁻¹ s⁻¹] |
| --- | --- |
| FVIIa variant Q286M (enzyme) ANAFLEELRPGSLERECKEEQCSFEEAREIFKDAERTKLFWISYSDGDQCASSPCQNGGSCKDQLQSYICFCLPAFEGRNCETHKDDQLICVNENGGCEQYCSDHTGTKRSCRCHEGYSLLADGVSCTPTVEYPCGKIPILEKRNASKPQGRIVGGKVCPKGECPWQVLLLVNGAQLCGGTLINTIWVVSAAHCFDKIKNWRNLIAVLGEHDLSEHDGDEQSRRVAQVIIPSTYVPGTTNHDIALLRLHQPVVLTDHVVPLCLPERTFSERTLAFVRFSLVSGWGMLLDRGATALELMVLNVPRLMTQDCLQQSRKVGDSPNITEYMFCAGYSDGSKDSCKGDSGGPHATHYRGTWYLTGIVSWGQGCATVGHFGVYTRVSQYIEWLQKLMRSEPRPGVLLRAPFP | 5.25e+07 |
| FVIIa variant Q366M (enzyme) ANAFLEELRPGSLERECKEEQCSFEEAREIFKDAERTKLFWISYSDGDQCASSPCQNGGSCKDQLQSYICFCLPAFEGRNCETHKDDQLICVNENGGCEQYCSDHTGTKRSCRCHEGYSLLADGVSCTPTVEYPCGKIPILEKRNASKPQGRIVGGKVCPKGECPWQVLLLVNGAQLCGGTLINTIWVVSAAHCFDKIKNWRNLIAVLGEHDLSEHDGDEQSRRVAQVIIPSTYVPGTTNHDIALLRLHQPVVLTDHVVPLCLPERTFSERTLAFVRFSLVSGWGQLLDRGATALELMVLNVPRLMTQDCLQQSRKVGDSPNITEYMFCAGYSDGSKDSCKGDSGGPHATHYRGTWYLTGIVSWGMGCATVGHFGVYTRVSQYIEWLQKLMRSEPRPGVLLRAPFP | 6.61e+07 |
| FVIIa variant S222D (enzyme) ANAFLEELRPGSLERECKEEQCSFEEAREIFKDAERTKLFWISYSDGDQCASSPCQNGGSCKDQLQSYICFCLPAFEGRNCETHKDDQLICVNENGGCEQYCSDHTGTKRSCRCHEGYSLLADGVSCTPTVEYPCGKIPILEKRNASKPQGRIVGGKVCPKGECPWQVLLLVNGAQLCGGTLINTIWVVSAAHCFDKIKNWRNLIAVLGEHDLSEHDGDEQDRRVAQVIIPSTYVPGTTNHDIALLRLHQPVVLTDHVVPLCLPERTFSERTLAFVRFSLVSGWGQLLDRGATALELMVLNVPRLMTQDCLQQSRKVGDSPNITEYMFCAGYSDGSKDSCKGDSGGPHATHYRGTWYLTGIVSWGQGCATVGHFGVYTRVSQYIEWLQKLMRSEPRPGVLLRAPFP | 5.34e+07 |
| FVIIa variant Q286Y (enzyme) ANAFLEELRPGSLERECKEEQCSFEEAREIFKDAERTKLFWISYSDGDQCASSPCQNGGSCKDQLQSYICFCLPAFEGRNCETHKDDQLICVNENGGCEQYCSDHTGTKRSCRCHEGYSLLADGVSCTPTVEYPCGKIPILEKRNASKPQGRIVGGKVCPKGECPWQVLLLVNGAQLCGGTLINTIWVVSAAHCFDKIKNWRNLIAVLGEHDLSEHDGDEQSRRVAQVIIPSTYVPGTTNHDIALLRLHQPVVLTDHVVPLCLPERTFSERTLAFVRFSLVSGWGYLLDRGATALELMVLNVPRLMTQDCLQQSRKVGDSPNITEYMFCAGYSDGSKDSCKGDSGGPHATHYRGTWYLTGIVSWGQGCATVGHFGVYTRVSQYIEWLQKLMRSEPRPGVLLRAPFP | 1.61e+07 |
| FVIIa variant S222N (enzyme) ANAFLEELRPGSLERECKEEQCSFEEAREIFKDAERTKLFWISYSDGDQCASSPCQNGGSCKDQLQSYICFCLPAFEGRNCETHKDDQLICVNENGGCEQYCSDHTGTKRSCRCHEGYSLLADGVSCTPTVEYPCGKIPILEKRNASKPQGRIVGGKVCPKGECPWQVLLLVNGAQLCGGTLINTIWVVSAAHCFDKIKNWRNLIAVLGEHDLSEHDGDEQNRRVAQVIIPSTYVPGTTNHDIALLRLHQPVVLTDHVVPLCLPERTFSERTLAFVRFSLVSGWGQLLDRGATALELMVLNVPRLMTQDCLQQSRKVGDSPNITEYMFCAGYSDGSKDSCKGDSGGPHATHYRGTWYLTGIVSWGQGCATVGHFGVYTRVSQYIEWLQKLMRSEPRPGVLLRAPFP | 6.82e+07 |
